From patent US20230181748A1 (published 2023)
Where two headings read alike, the source gives them in different places. Non-standard residues stand in square brackets, D forms with d. No end group written: not given here. pomalidomide = small molecule targeting Cereblon, fused after the C-terminal end; Hyp = O=C(O)[C@@H]1C[C@@H](O)CN1

Columns and labels:
Experiment in all cases: MST
[1] = molecular target: preformed, sonicated Aβ aggregates (UniProt P05067 672-713)
[2] = molecular target: T1, atto-633-labeled preformed tau aggregates (UniProt P10636 1-441, atto-633 label, site not stated)
[3] = molecular target: atto-633-labeled tau monomers (UniProt P10636 1-441, atto-633 label, site not stated)
[4] = molecular target: T1, atto-633-labeled preformed tau …; remark: listed apart in the source
[5] = molecular target: T1, atto-633-labeled preformed tau …; remark: listed apart in the source

Chain of preformed, sonicated Aβ aggregates (P05067 672-713): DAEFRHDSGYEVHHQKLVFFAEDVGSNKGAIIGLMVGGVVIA
T1 sequence (P10636 other isoform, or with tags, fused parts or gaps): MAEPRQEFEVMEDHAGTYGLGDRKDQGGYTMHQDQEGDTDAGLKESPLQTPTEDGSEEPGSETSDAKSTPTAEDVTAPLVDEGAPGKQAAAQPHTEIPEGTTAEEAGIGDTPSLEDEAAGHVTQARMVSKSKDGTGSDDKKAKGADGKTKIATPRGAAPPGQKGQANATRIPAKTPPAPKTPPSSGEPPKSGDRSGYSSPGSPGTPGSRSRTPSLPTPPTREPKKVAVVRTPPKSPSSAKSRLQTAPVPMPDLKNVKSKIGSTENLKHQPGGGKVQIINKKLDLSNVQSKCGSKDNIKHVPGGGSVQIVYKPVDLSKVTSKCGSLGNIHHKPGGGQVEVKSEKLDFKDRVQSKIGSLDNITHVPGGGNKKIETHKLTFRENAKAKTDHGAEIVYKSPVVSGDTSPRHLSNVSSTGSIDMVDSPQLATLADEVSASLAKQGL
Chain of atto-633-labeled tau monomers (P10636 other isoform, or with tags, fused parts or gaps): as above

With GWVVIAGSKLKFFA [AbCap_19] the Kd [1] was 6.08 µM.

Binder MVWGVVGSKWVFFA [AbCap_4] has a Kd [1] of 1.55 µM.

Work on WQIVYKGSVWMINK-pomalidomide (also: pomalidomide link chemistry not described) [HET-pomalidomide] yielded a Kd [2] of 4.8 µM and a Kd [3] of ~10.9 µM.

Work on WQIVYKGSVWMINKGSGSALA[Hyp]YIP [HET fused to the VHL-moiety] yielded a Kd [4] of 3.3 µM.

MVWGVVGSKLWFFA [AbCap_3] showed a Kd [1] of 4.94 µM and a Kd [5] of 4.65 µM.

WQIVYKGSVWMINK [HET] gave a Kd [4] of ~3.3 µM.

Binder WQIVYKGSVWMINKGSGSNLLRLTGW [HET_JAV] has a Kd [2] of 2.2 µM.
